# Source: the supplement of paper PMC7125110
# ± gives the standard error. For part of these data: This sample holds only a part of the variants without activity.
# B1: glmS ribozyme (parent)
# chain: AUAAAAGCGCCAGAACUACAGAAAUGUAGUUGACGAGGAGGAGGUUUAUCGAAUUUUCGGCGGAUGCCUCCAAA
# Legend:
# Details in all cases: with glucosamine-6-phosphate
# glucosamine-6-phosphate [1] = variants of: B1; assay: kcat; higher = faster cleavage; RNA array
# Summary of the method: (§1)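 Glucosamine-6-phosphate (40 μM to 10 mM) in HEPES/KCl/Mg(OAc)2 buffer was flowed over sequenced MiSeq chips, and tiles were imaged over ~14 h. Barcoded ribozyme variants there had been transcribed in situ by E. coli RNA polymerase and were tracked through a hybridised Cy3 probe at 37 °C. One- or two-exponential decay fits to per-tile medians, normalised to baseline and to non-cleaving reference variants, gave kobs. kcat and KM came from weighted Michaelis–Menten fits across concentrations.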
# glucosamine-6-phosphate [2] = variants of: B1; assay: KM; higher = weaker cofactor use; RNA array
# Summary of the method: as §1
# glucosamine-6-phosphate [3] = variants of: B1; assay: self-cleavage kobs at 640 uM GlcN6P; higher = faster cleavage; RNA array
# Summary of the method: as §1
# glucosamine-6-phosphate [4] = variants of: B1; assay: self-cleavage kobs at 2500 uM GlcN6P; higher = faster cleavage; RNA array
# Summary of the method: as §1
# glucosamine-6-phosphate [5] = variants of: B1; assay: self-cleavage kobs at 10000 uM GlcN6P; higher = faster cleavage; RNA array
# Summary of the method: as §1
# glucosamine-6-phosphate [6] = variants of: B1; assay: self-cleavage kobs at 160 uM GlcN6P; higher = faster cleavage; RNA array
# Summary of the method: as §1
# glucosamine-6-phosphate [7] = variants of: B1; assay: self-cleavage kobs at 40 uM GlcN6P; higher = faster cleavage; RNA array
# Summary of the method: as §1
Variant,kcat (glucosamine-6-phosphate [1]) [s⁻¹],KM (glucosamine-6-phosphate [2]) [µM],self-cleavage kobs at 640 uM GlcN6P (glucosamine-6-phosphate [3]) [s⁻¹],self-cleavage kobs at 2500 uM GlcN6P (glucosamine-6-phosphate [4]) [s⁻¹],self-cleavage kobs at 10000 uM GlcN6P (glucosamine-6-phosphate [5]) [s⁻¹],self-cleavage kobs at 160 uM GlcN6P (glucosamine-6-phosphate [6]) [s⁻¹],self-cleavage kobs at 40 uM GlcN6P (glucosamine-6-phosphate [7]) [s⁻¹]
A48U A53U,0.000308 ± 4.1e-05,1960 ± 750,0.000104 ± 3.1e-05,0.000161 ± 2e-05,0.000265 ± 2.8e-05,,
U31G G41A,0.000638 ± 6.8e-05,1220 ± 220,0.000224 ± 2.5e-05,0.000482 ± 6.9e-05,0.000506 ± 9.5e-05,7.06e-05 ± 1.2e-05,
G66U C68U,0.000348 ± 2.4e-05,1260 ± 190,0.000116 ± 1.2e-05,0.000226 ± 4e-05,0.000311 ± 2.9e-05,3.82e-05 ± 1.3e-05,2.21e-05 ± 1e-05
G41A U46G C70U,0.00726 ± 0.0013,620 ± 170,0.00452 ± 0.0018,,0.00749 ± 0.002,,0.000436 ± 0.0001
A15U G40A,0.000675 ± 9.5e-05,912 ± 230,0.000282 ± 4.7e-05,0.000515 ± 0.0001,0.000611 ± 0.0001,8.75e-05 ± 1.8e-05,4.43e-05 ± 1.2e-05
U30C U65A,2.91e-05 ± 1.2e-05,,,3.76e-05 ± 1.2e-05,,,
U45A A53G,0.0342 ± 0.011,692 ± 270,0.0131 ± 0.0026,,0.0473 ± 0.012,0.00536 ± 0.0026,0.002 ± 0.00022
U55G G60A,2.4e-05 ± 6.2e-07,1810 ± 130,,,,,
A42C U55G,< 1e-05,,,,,,< 1e-05
C16A A53C,0.000269 ± 1.8e-05,1770 ± 270,6.66e-05 ± 1.2e-05,0.000164 ± 2.3e-05,0.000226 ± 2.5e-05,3.05e-05 ± 1.2e-05,
A14C A15U,0.000353 ± 2.4e-05,3640 ± 380,5.17e-05 ± 6.8e-06,0.000148 ± 1.9e-05,0.000256 ± 3.6e-05,,
A6C U54G,0.000119 ± 4.3e-06,4980 ± 410,,3.94e-05 ± 9.9e-06,7.93e-05 ± 1.1e-05,,
A39C C67G,0.000391 ± 0.00014,,8.41e-05 ± 7.6e-06,0.000216 ± 1.7e-05,,3.74e-05 ± 7.5e-06,2.13e-05 ± 7.7e-06
A12G U56G,0.000904 ± 9.3e-05,6610 ± 950,8.35e-05 ± 8.6e-06,0.00024 ± 2.2e-05,0.000553 ± 5.7e-05,,
U56C,0.00571 ± 0.00066,3050 ± 430,0.000963 ± 2.5e-05,0.00743 ± 0.0032,0.00442 ± 0.00011,0.000244 ± 8.9e-06,7.94e-05 ± 1.5e-06
A42C C70U,1.24e-05 ± 3.3e-06,,,,,,

Variant,kcat (glucosamine-6-phosphate [1]) [s⁻¹],KM (glucosamine-6-phosphate [2]) [µM],self-cleavage kobs at 640 uM GlcN6P (glucosamine-6-phosphate [3]) [s⁻¹],self-cleavage kobs at 2500 uM GlcN6P (glucosamine-6-phosphate [4]) [s⁻¹],self-cleavage kobs at 10000 uM GlcN6P (glucosamine-6-phosphate [5]) [s⁻¹],self-cleavage kobs at 160 uM GlcN6P (glucosamine-6-phosphate [6]) [s⁻¹],self-cleavage kobs at 40 uM GlcN6P (glucosamine-6-phosphate [7]) [s⁻¹]
C8G G60A,< 1e-05,,,,< 1e-05,,< 1e-05
A15C A48U,5.55e-05 ± 7.9e-06,2840 ± 1100,,2.83e-05 ± 1.2e-05,4.26e-05 ± 1.2e-05,,< 1e-05
U31A U65G,0.00228 ± 0.00054,2390 ± 1000,0.000521 ± 8.8e-05,0.000854 ± 0.00019,0.00205 ± 0.00027,0.000211 ± 6.2e-05,3.37e-05 ± 1.5e-05
G40C C71U,0.00477 ± 0.0015,1730 ± 780,0.00124 ± 0.00014,0.00328 ± 0.00041,0.00384 ± 0.00053,0.000335 ± 4.3e-05,0.000198 ± 2.6e-05
C11U C68A C71G,5.97e-05 ± 2.3e-05,,0.000101 ± 2.3e-05,,,,
G38C U49G C68A,1.34e-05 ± 4.6e-06,,,,,,
U30G G40U,0.000787 ± 9.4e-05,1610 ± 350,0.000212 ± 2.9e-05,0.000615 ± 0.00014,0.000668 ± 7.3e-05,6.94e-05 ± 1.5e-05,3.53e-05 ± 1.3e-05
U30G G40C,0.000669 ± 0.0001,864 ± 240,0.000265 ± 3.4e-05,0.000619 ± 8.6e-05,0.000544 ± 0.0001,0.000103 ± 1.9e-05,3.69e-05 ± 1.2e-05
G41A U45C,0.0002 ± 3.8e-05,303 ± 140,0.000158 ± 3.6e-05,0.000154 ± 3.9e-05,0.000372 ± 0.00017,6.67e-05 ± 1.8e-05,
A15U A36G U69C C70A,1.84e-05 ± 4.3e-06,,,,,,
C50U C68A,3.06e-05 ± 9.8e-06,,4.9e-05 ± 1.9e-05,3.28e-05 ± 1.5e-05,,,
A14U A52G,0.00038 ± 0.0001,2840 ± 1300,7.16e-05 ± 1e-05,0.000166 ± 1.6e-05,0.000325 ± 4.4e-05,5.44e-05 ± 1.7e-05,
G41U A53G,0.00129 ± 0.00028,291 ± 120,0.00133 ± 0.0002,0.000959 ± 0.00015,0.00153 ± 0.00029,0.000362 ± 7.8e-05,0.000167 ± 2.7e-05
C16A G51A,< 1e-05,632 ± 220,,,< 1e-05,,
G59A U65C,1.55e-05 ± 5.6e-06,,,,,,
G13U U54G,0.00069 ± 0.00021,,0.000263 ± 6e-05,0.000363 ± 6.4e-05,0.000964 ± 0.00015,9.27e-05 ± 1.6e-05,3.24e-05 ± 1.1e-05
